Experimental data published in FireProtDB (doi:10.1073/pnas.0910421107).

B1: Ribose import binding protein RbsB, P02925 (parent)
chain: MNMKKLATLVSAVALSATVSANAMAKDTIALVVSTLNNPFFVSLKDGAQKEADKLGYNLVVLDSQNNPAKELANVQDLTVRGTKILLINPTDSDAVGNAVKMANQANIPVITLDRQATKGEVVSHIASDNVLGGKIAGDYIAKKAGEGAKVIELQGIAGTSAARERGEGFQQAVAAHKFNVLASQPADFDRIKGLNVMQNLLTAHPDVQAVFAQNDEMALGALRALQTAGKSDVMVVGFDGTPDGEKAVNDGKLAATIAQLPDQIGAKGVETADKVLKGEKVQAKYPVDLKLVVKQ

Variants of: B1
Conditions: Escherichia coli (strain K12), pH 7.6, Thermal, MOPS 25 mM, Potassium chloride 100 mM, structure 2DRI, whole UniProt chain shown
[1] = 25 °C, Quantitative cysteine reactivity
[2] = Quantitative cysteine reactivity

Row | Variant | unfolding enthalpy (van 't Hoff) [1] [kcal/mol] | unfolding free energy [1] [kcal/mol] | Tm (Activity) [°C] | change of melting temperature, mutant - wild type (higher = more stable) (Activity) [°C] | Tm [2] [°C] | change of melting temperature, mutant - wild type (higher = more stable) [2] [°C] | ddG of mutation (higher = less stable) (25 °C, Activity) [kcal/mol] | unfolding enthalpy (van 't Hoff) (25 °C, Activity) [kcal/mol] | unfolding free energy (25 °C, Activity) [kcal/mol]
1 | MNMKKLATLVSAVALSATVSANAMAKDTIALVVSTLNNPFFVSLKDGAQKEADKLGYNLVVLDSQNNPAKELANVQDLTVRGTKILLINPTDSDAVGNAVKMANQANIPVITLDRQATKGEVVSHIASDNVLGGKIAGDYIAKKAGEGAKVIELQGIAGTSAARERGEGFQQAVAAHKFNVLASQPADFDRIKGLNVMQNLLTAHPDVQAVFCQNDEMALGALRALQTAGKSDVMVVGFDGTPDGEKAVNDGKLAATIAQLPDQIGAKGVETADKVLKGEKVQAKYPVDLKLVVKQ [A213C] | 91 | 4.1 | 56 | -6.6 | 56 | -6.6 | – | – | –
2 | MNMKKLATLVSAVALSATVSANAMAKDTIALVVSTLNNPFFVSLKDGAQKEADKLGYNLVVLDSQNNPAKELANVQDLTVRGTKILCINPTDSDAVGNAVKMANQANIPVITLDRQATKGEVVSHIASDNVLGGKIAGDYIAKKAGEGAKVIELQGIAGTSAARERGEGFQQAVAAHKFNVLASQPADFDRIKGLNVMQNLLTAHPDVQAVFAQNDEMALGALRALQTAGKSDVMVVGFDGTPDGEKAVNDGKLAATIAQLPDQIGAKGVETADKVLKGEKVQAKYPVDLKLVVKQ [L87C] | 81 | 3.2 | 54 | -8.6 | 54 | -8.6 | 2.7 | 81 | 3.2
